Results published in paper PMC2556791 (The Journal of Experimental Medicine, 2008).
Each block holds one molecule with its values, some of them ahead of it.

Legend:
[1] = target: mCMKLR1-HA on L1.2 transfectants (mouse) (UniProt P97468); experiment: radioligand binding
[2] = target: huCCRL2-HA on L1.2 transfectants (human); experiment: radioligand binding
[3] = target: mCCRL2 on freshly isolated mouse peritoneal mast cells (mouse (endogenous in peritoneal mast cells)) (UniProt O35457); experiment: flow cytometry on cells
[4] = target: huCCRL2-HA on L1.2 transfectants (human); experiment: flow cytometry on cells
[5] = target: T1, mCCRL2-HA on L1.2 transfectants (mouse, UniProt O35457 1-360); experiment: flow cytometry on cells
T1 sequence (looked up): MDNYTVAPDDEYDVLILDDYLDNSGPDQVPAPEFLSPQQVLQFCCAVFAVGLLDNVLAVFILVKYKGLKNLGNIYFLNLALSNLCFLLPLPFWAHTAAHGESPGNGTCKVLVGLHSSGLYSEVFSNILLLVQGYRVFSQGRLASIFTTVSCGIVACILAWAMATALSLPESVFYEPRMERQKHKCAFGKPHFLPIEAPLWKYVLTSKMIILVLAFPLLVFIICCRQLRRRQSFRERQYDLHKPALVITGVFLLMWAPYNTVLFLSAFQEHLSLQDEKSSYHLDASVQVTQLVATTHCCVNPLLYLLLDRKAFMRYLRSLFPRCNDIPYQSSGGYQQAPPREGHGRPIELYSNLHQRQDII

[6] = target: T1, mCCRL2-HA on L1.2 transfectants; experiment: radioligand binding
[7] = target: T2, mCMKLR1-HA on L1.2 transfectants (mouse, UniProt P97468 1-371); experiment: radioligand binding
T2 sequence (looked up): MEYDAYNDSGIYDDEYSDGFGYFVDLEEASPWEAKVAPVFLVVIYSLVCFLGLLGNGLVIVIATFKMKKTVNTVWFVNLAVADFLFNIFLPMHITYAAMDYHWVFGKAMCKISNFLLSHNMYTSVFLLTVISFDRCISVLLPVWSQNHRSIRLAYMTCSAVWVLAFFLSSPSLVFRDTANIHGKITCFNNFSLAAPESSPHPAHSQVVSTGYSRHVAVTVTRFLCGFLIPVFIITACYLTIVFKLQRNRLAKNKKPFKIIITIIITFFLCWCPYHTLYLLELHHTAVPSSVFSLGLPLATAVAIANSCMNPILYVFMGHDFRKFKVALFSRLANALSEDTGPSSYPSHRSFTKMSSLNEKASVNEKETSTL

Molecule: chemerin (unlabeled; form not specified) (from UniProt Q99969 21-157) (ligand)
EC50 [1]: 3.1 nM
EC50 [2]: 0.2 nM
EC50 [3]: 21 nM

Molecule: YFPGQFAFS [bioactive 9-mer carboxyl-terminal chemerin peptide (residues 149–157, YFPGQFAFS)]
EC50 [7]: 26.2 nM

Further lines, results first:

EC50 [1]: 26.3 nM
Molecule: C-terminal His8-tagged serum form human chemerin (NH2-ADPELTE……-COOH) (from UniProt Q99969 21-155) (ligand)

EC50 [4]: 7 nM
EC50 [5]: 45 nM
B1: untagged serum form human chemerin (NH2-ADPELTE…FAPH-COOH) (ligand)
chain: ADPELTEAQRRGLQVALEEFHKHPPVQWAFQETSVESAVDTPFPAGIFVRLEFKLQQTSCRKRDWKKPECKVRPNGRKRKCLACIKLGSEDKVLGRLVHCPIETQVLREAEEHQETQCLRVQRAGEDPHSFYFPGQFAPH

Kd [6]: 1.6 nM
B2: 125I-chemerin (residues 21–148) (ligand, human, UniProt Q99969 21-148, looked up)
chain: ELTEAQRRGLQVALEEFHKHPPVQWAFQETSVESAVDTPFPAGIFVRLEFKLQQTSCRKRDWKKPECKVRPNGRKRKCLACIKLGSEDKVLGRLVHCPIETQVLREAEEHQETQCLRVQRAGEDPHSF
modifications: 125I (radioiodinated; specific activity 97 Ci/g)
